# T1: Human TRF2 (human), Q15554
# T1 chain: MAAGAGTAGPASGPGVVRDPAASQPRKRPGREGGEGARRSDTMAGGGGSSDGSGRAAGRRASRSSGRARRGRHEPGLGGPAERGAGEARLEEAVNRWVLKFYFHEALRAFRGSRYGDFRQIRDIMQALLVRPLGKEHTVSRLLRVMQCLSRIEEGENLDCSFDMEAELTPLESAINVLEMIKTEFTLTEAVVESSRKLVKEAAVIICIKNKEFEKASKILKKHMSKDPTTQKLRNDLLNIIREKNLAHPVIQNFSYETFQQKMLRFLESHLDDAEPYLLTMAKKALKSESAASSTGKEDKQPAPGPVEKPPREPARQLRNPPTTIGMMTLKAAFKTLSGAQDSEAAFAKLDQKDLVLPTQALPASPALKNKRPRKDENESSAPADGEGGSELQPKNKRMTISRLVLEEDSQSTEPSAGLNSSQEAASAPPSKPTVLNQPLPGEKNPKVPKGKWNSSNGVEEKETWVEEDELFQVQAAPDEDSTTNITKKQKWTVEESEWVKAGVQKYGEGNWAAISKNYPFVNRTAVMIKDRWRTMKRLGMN
# T2: ybbR-tagged human TIN2 (human, UniProt Q9BSI4-2 1-354, Cy3 (from CoA-Cy3, by Sfp phosphopantetheinyl transferase) on the ybbR tag)
# T2 construct: The methods put the ybbR tag at the C-terminus of TIN2; the results speak of an N-terminal tag on each protein; also called TIN2 (ybbR tag); source: Tni insect cells (baculovirus), co-expressed, purified as complex, labelled with CoA-Cy3 by Sfp; not shown: His6, N-terminal, cleaved; MBP, N-terminal, cleaved
# T2 sequence (looked up): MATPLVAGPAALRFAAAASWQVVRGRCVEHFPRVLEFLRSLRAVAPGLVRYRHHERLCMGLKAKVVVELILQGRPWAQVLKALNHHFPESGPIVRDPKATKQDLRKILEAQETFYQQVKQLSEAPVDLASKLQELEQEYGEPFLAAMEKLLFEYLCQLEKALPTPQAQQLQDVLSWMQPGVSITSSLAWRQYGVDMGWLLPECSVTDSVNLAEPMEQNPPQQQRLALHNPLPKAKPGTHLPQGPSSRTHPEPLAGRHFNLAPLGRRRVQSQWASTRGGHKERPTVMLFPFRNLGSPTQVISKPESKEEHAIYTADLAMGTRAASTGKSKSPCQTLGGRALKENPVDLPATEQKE
# T3: Human TIN2 (human, UniProt Q9BSI4-2 1-354)
# T3 construct: cDNA cloned into pFastBac1; called full-length in the discussion; not shown: His6, N-terminal, cleaved; MBP, N-terminal, cleaved
# T3 sequence (looked up): T2 sequence (looked up)
# T4: Human TRF1 (human), P54274
# T4 chain: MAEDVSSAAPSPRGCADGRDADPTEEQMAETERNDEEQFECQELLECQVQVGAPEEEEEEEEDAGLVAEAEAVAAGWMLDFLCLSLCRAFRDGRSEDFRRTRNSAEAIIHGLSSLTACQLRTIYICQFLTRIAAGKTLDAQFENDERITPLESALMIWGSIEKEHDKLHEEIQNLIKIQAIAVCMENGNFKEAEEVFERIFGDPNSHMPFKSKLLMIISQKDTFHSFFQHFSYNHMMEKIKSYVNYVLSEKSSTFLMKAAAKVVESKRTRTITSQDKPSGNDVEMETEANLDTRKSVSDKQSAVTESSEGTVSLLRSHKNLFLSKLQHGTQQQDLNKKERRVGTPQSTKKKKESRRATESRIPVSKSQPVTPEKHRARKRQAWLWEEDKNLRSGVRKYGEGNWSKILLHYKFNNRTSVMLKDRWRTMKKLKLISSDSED
# B1: C8 (mixed)
# DNA 1: GACCATGCTTAGGGTTAGGGTTATCATACAAGTTAGGGTTAGGG
# DNA 2: TTGTATGATAACCCTAACCCTAAGCATGGTC
# B2: mCherry-TIN2S (natural protein)
# chain: T2 sequence (looked up)
# B3: Human TRF2, Q15554 1-542 (natural protein)
# chain: T1 chain
# B4: ybbR-tagged human TRF2 (natural protein, UniProt Q15554 1-542, looked up)
# chain: T1 chain
# modifications: Cy3 (from CoA-Cy3, by Sfp phosphopantetheinyl transferase) on the ybbR tag
# notes: also called TRF2 (ybbR tag); source: Tni insect cells (baculovirus), co-expressed, purified as complex, labelled with CoA-Cy3 by Sfp
# B5: Human TRF2 (natural protein, UniProt Q15554 1-542, looked up)
# chain: T1 chain
# notes: called full-length in the discussion; predicted dimer mass printed as 119 kDa; source: Tni insect cells (baculovirus), alone or co-expressed with other shelterin proteins, purified (final SEC)
# B6: Human TRF1, P54274-1 1-439 (natural protein)
# chain: T4 chain
# Columns and labels:
# Human TIN2 (human) = Human TIN2 (human) (UniProt Q9BSI4); assay: SEC-MALS; purified proteins or co-expressed, purified complexes at 1 mg ml^−1, 100 µl on Superose 6 Increase 10/300 GL, 0.5 ml min^−1, 25 °C, 50 mM HEPES pH 7.5, 300 mM NaCl, 1 mM TCEP
# mCherry-TIN2S, Q9BSI4-2 = assay: LacI-LacO array fluorescence colocalization in cells; conditions: U2OS 2-6-3 cell line; n > 50 nuclei per construct from 3 biological replicates; parent: est. 0.90; read off a plot
# TRF2 = TRF2 (Homo sapiens, UniProt A0ACI8RU48 1-541); assay: EMSA (agarose); 500 nM protein; some smearing; Agarose EMSA: 50 mM Tris-HCl pH 8.0, 150 mM KCl, 2 mM MgCl2, 1 mM DTT, 10% glycerol, 0.5 mg/ml BSA, 0.02 mg/ml carrier dsDNA, 30 min 23 C (gel at 4 C); FP: same buffer without carrier DNA, 23 C; conditions: protein: recombinant; tags: 6xHis N-term; chain copies: 2; label: 5'-32P on long strand (EMSA); 3' overhang 13 nt
# [1] = target: eGFP–TPP1_(480–544)–LacI (human); assay: LacI–LacO array recruitment (fluorescence colocalisation); eGFP–TPP1–LacI constructs tethered to a LacO array in U2-OS 2-6-3 cells, co-transfected with mCherry-TIN2S; fixed 24 h after transfection; fraction of nuclei with mCherry at the single GFP focus
# eGFP–TPP1–LacI (human) = eGFP–TPP1–LacI (human) (UniProt Q96AP0); assay: as above
# [2] = target: T1, Human TRF2 (human), Q15554; assay: SEC-MALS; purified proteins or co-expressed, purified complexes at 1 mg ml^−1, 100 µl on Superose 6 Increase 10/300 GL, 0.5 ml min^−1, 25 °C, 50 mM HEPES pH 7.5, 300 mM NaCl, 1 mM TCEP; conditions: remark: other sources report otherwise
# ybbR-tagged human TIN2 = target: T2, ybbR-tagged human TIN2; assay: fluorescence intensity of Cy3-labelled ybbR-tagged subunits on SDS-PAGE; purified complexes (5 µM) with one ybbR tag on each subunit labelled with CoA-Cy3 (10 µM) by Sfp (1 µM), 50 mM HEPES pH 7.5, 300 mM KCl, 10 mM MgCl2, 1 mM TCEP, overnight at 4 °C; band intensities normalised to TPP1; conditions: both partners purified
# Human TIN2 = target: T3, Human TIN2; assay: SEC-MALS; purified proteins or co-expressed, purified complexes at 1 mg ml^−1, 100 µl on Superose 6 Increase 10/300 GL, 0.5 ml min^−1, 25 °C, 50 mM HEPES pH 7.5, 300 mM NaCl, 1 mM TCEP; conditions: both partners purified
# [3] = target: T4, Human TRF1 (human), P54274; assay: as above; conditions: remark: other sources report otherwise
# eGFP–TPP1–LacI (human), sequence (Q96AP0 whole entry): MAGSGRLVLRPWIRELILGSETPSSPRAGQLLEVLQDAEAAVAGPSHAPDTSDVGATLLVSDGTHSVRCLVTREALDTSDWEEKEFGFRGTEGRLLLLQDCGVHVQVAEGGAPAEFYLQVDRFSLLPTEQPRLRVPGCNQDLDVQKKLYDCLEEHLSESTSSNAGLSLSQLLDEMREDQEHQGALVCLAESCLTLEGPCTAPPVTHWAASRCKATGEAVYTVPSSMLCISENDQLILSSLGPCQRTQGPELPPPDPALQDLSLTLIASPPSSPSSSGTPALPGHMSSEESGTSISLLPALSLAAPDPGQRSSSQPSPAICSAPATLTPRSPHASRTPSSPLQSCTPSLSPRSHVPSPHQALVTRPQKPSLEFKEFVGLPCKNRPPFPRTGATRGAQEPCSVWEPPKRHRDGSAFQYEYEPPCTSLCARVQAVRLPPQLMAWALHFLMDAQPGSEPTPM
# eGFP–TPP1_(480–544)–LacI (human), sequence (Q96AP0 whole entry): as above
molecule,measurement,setting,value
Human TPP1 (from UniProt Q96AP0 1-458) (natural protein),stoichiometry N (TPP1 per TIN2),Human TIN2 (human),1
eGFP–TPP1–LacI (from UniProt Q96AP0) NAAIRS 480 (six residues starting at 480 replaced by NAAIRS),other: fraction of colocalization,"mCherry-TIN2S, Q9BSI4-2",0.92
eGFP–TPP1–LacI (from UniProt Q96AP0) NAAIRS 486 (six residues starting at 486 replaced by NAAIRS),other: fraction of colocalization,"mCherry-TIN2S, Q9BSI4-2",0.94
eGFP–TPP1–LacI (from UniProt Q96AP0) NAAIRS 492 (six residues starting at 492 replaced by NAAIRS),other: fraction of colocalization,"mCherry-TIN2S, Q9BSI4-2",0.93
eGFP–TPP1–LacI (from UniProt Q96AP0) NAAIRS 498 (six residues starting at 498 replaced by NAAIRS),other: fraction of colocalization,"mCherry-TIN2S, Q9BSI4-2",0.88
eGFP–TPP1–LacI (from UniProt Q96AP0) NAAIRS 504 (six residues starting at 504 replaced by NAAIRS),other: fraction of colocalization,"mCherry-TIN2S, Q9BSI4-2",0.92
eGFP–TPP1–LacI (from UniProt Q96AP0) NAAIRS 510 (six residues starting at 510 replaced by NAAIRS),other: fraction of colocalization,"mCherry-TIN2S, Q9BSI4-2",0.88
eGFP–TPP1–LacI (from UniProt Q96AP0) NAAIRS 516 (six residues starting at 516 replaced by NAAIRS),other: fraction of colocalization,"mCherry-TIN2S, Q9BSI4-2",0.93
eGFP–TPP1–LacI (from UniProt Q96AP0) NAAIRS 522 (six residues starting at 522 replaced by NAAIRS),other: fraction of colocalization,"mCherry-TIN2S, Q9BSI4-2",0.87
eGFP–TPP1–LacI (from UniProt Q96AP0) NAAIRS 534 (six residues starting at 534 replaced by NAAIRS),other: fraction of colocalization,"mCherry-TIN2S, Q9BSI4-2",0.93
eGFP–TPP1–LacI (from UniProt Q96AP0) NAAIRS 539 (six residues starting at 539 replaced by NAAIRS),other: fraction of colocalization,"mCherry-TIN2S, Q9BSI4-2",0.96
B1,binding result,TRF2,binds
B2,fraction of LacO sites with colocalisation,[1],90%
same,fraction of LacO sites with colocalisation,eGFP–TPP1–LacI (human),90%
B3,stoichiometry N (subunits in the oligomer),[2],2
B4,stoichiometry N,ybbR-tagged human TIN2,2 TRF2 per TIN2
B5,stoichiometry N,Human TIN2,2 TRF2 per TIN2
B6,stoichiometry N (subunits in the oligomer),[3],2

# Reference: publication PMC5651854, “Reconstitution of human shelterin complexes reveals unexpected stoichiometry and dual pathways to enhance telomerase processivity” (Nature Communications, 2017)
